System: His6MBP-MP (TMV movement protein, 30 kDa) (Tobacco mosaic virus)
Experiment: EMSA
Conditions: 20 mM Tris-HCl pH 7.5, 35 mM KCl, 3.5 mM MgCl2, 5 U RNaseOUT, 10 ul, 30 min at 4 C; 6% native PAGE at 4 C, RNA blot detection; ssDNA/dsDNA competitors were …

PSTVd WT full-length transcript, folded
K half: 36 nM

— publication PMC9829174
